What was measured:
EGFRvIII-peptide-OVA = molecular target: T1, EGFRvIII-peptide-OVA (Homo sapiens, UniProt P00533, DELINS30-297G); experiment: B-cell culture supernatant ELISA on EGFRvIII-peptide-OVA; format: binding; details: Table 3.8
T1 construct: purchased R&D Systems (custom synthesis); host or cells: synthetic peptide
Procedure: B-cells from the above-discussed animals were harvested and cultured. Those secreting EGFRvIII-peptide specific antibodies were isolated as described in Babcook et al., Proc. Natl. Acad. Sci. USA, 93:7843-7848 (1996). ELISA was used to identify primary EGFRvIII-peptide-OVA-specific wells. About 5 million B-cells were cultured from XenoMouse animals in 245 96 well plates at 500 or 150 or 50 cells/well, and were screened on EGFRvIII-peptide-OVA to identify the antigen-specific wells.

[1] = molecular target: T2, NR6 Wt cells (NR6 cells expressing EGF receptor) (Homo sapiens, UniProt P00533); experiment: Native cell binding assay by FMAT, NR6 Wt cells; format: cell-based; details: total fluorescent intensity
T2 construct: expressed in transfected cells; host or cells: NR6 murine fibroblasts (NR6 Wt)

OVA = molecular target: T3, OVA (Gallus gallus, UniProt P01012); experiment: B-cell culture supernatant control ELISA on OVA; format: binding; details: Table 3.8
T3 sequence (P01012 1-386): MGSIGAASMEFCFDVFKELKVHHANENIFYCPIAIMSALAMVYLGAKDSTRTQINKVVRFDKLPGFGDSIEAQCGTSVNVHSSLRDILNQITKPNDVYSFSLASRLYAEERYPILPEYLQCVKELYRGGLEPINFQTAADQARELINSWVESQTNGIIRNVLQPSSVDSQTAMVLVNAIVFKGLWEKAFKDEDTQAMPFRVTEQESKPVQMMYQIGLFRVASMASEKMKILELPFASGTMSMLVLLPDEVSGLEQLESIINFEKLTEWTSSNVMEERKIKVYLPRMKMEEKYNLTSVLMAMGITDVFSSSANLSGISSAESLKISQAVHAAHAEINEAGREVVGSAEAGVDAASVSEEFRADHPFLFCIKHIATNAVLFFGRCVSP
Excerpt: 244 of EGFRvIII-peptide-OVA-Elisa positive wells of OD>0.5 were screened again on EGFRvIII-peptide-OVA and on OVA to confirm that they were EGFRvIII-peptide specific.

[2] = molecular target: T4, EGFRvIII receptor on NR6 M cells (Homo sapiens, UniProt P00533, DELINS30-297G); experiment: Internalization assay of B-cell culture supernatants (FMAT, glutathione); format: cell-based
T4 construct: expressed in transfected cells; host or cells: NR6 murine fibroblasts (NR6 M)
Procedure: The top 60 native binding B cell culture supernatants were further assayed for their ability to internalize the receptor. NR6 M cells were seeded at 8000 cells/well into 96 well FMAT plates and incubated overnight. Media was removed and 10-15 μl B-Cell culture supernatant in a total volume of 30 μl media, in duplicate was added. Next, 15 μl of secondary antibody (SS Alexa 647 anti-human IgG Fab at 1.5 μg/ml final concentration) was added and the mixture was incubated on ice for 1 hr. An irrelevant B-Cell Culture supernatant was used to see the effect of the culture media. Human anti-EGFRvIII mAb 13.2.1 was used as a positive control starting at 1 μg/ml (final concentration) and negative control was PK 16.3.1 (human anti-KLH IgG2 antibody) at the same concentration. After incubation, the cells were washed with cold PBS, 50 μl media was added to all of the wells, one of the duplicates were incubated at 37° C. for 30 mins while the other duplicate remained on ice. After the incubations media was removed, 100 ul of cold 50 mM glutathione was added to the set incubated at 37° C. and 100 μl of cold media added to the other set, both sets were then left on ice for 1 hr. The cells were then washed with 100 μl cold PBS and then fixed with 1% paraformaldehyde and read in FMAT. The results were expressed as % intermalized, calculated as total fluorescence in the presence of glutathione/total fluorescence in the absence of glutathione X 100.

[3] = molecular target: T5, native form of EGFRvIII stably expressed on NR6 cells (NR6 M cells) (Homo sapiens, UniProt P00533, DELINS30-297G); experiment: Native cell binding assay by FMAT, NR6 M cells; format: cell-based; details: total fluorescent intensity
T5 construct: expressed in transfected cells; host or cells: NR6 murine fibroblasts (NR6 M)

B1: 129A7: B-cell culture supernatant well (antibody, V domains shown)
VH: QVQLVESGGGVVQPGRSLRLSCAASGFTLSSYGMHWVRQAPGKGLEWVAVMSYDGSKEDYADSVKGRFTISRDNSENTLYLQMNSLRAEDTAVYYCVSEGYCSSRSCYKYYYYGMDVWGQGTTVTVSS
VL: DIVMTQSPLSLPVTPGEPASISCRSSQSLLYRNGNNYLDWYLQKPGQSPQLLIYLGSNRASGVPDRFSGSGSGTDFTLNISRVEAEDVGHYYCMQALQTPRTFGQGTKVEIK
EGFRvIII-peptide-OVA
  1′ VIII-pep-OVA OD: 2.1501
  2′ VIII-pep-OVA OD: 2.8208
[1]
  FMAT native binding to NR6 Wt cells: 0
OVA
  OVA OD: 0.1515
[2]; 37° C. for 30 mins, then 50 mM glutathione
  With glutathione FL1 × count: 8708
[2]; NR6 M cells, 37° C. 30 mins
  % internalized, (glut+/glut−) × 100: 31.5%
[2]; set kept on ice, no glutathione
  No glutathione FL1 × count: 27648
[3]
  FMAT native binding to NR6 M cells: 84024

From patent publication US20050059087A1, “Antibodies directed to the deletion mutants of epidermal growth factor receptor and uses thereof” (priority 2003, published 2005)
